Test results from the supplement of paper PMC12042874.
± gives the uncertainty stated by the source.

Experiment: amyloid nucleation score (Sup35N fusion, yeast selection) (log enrichment); library NNK1; higher = more nucleation; inactive = no reads after selection
How it was run: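 After 24 hours of induction with 100 μM copper sulfate, psi-negative yeast expressing peptides of 20 random codons fused to Sup35N were grown for 7 days at 30°C on medium lacking adenine and uracil. Input and output plasmid inserts were sequenced with Illumina, and sequences with under 100 input reads were discarded. Scores for nucleation are the DiMSum log enrichment of output over input reads, centred on the mode score of non-aggregating sequences.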

Substance | amyloid nucleation score
SFTNDSSRSWRHTRLGSCCE | 1.48 ± 0.63
VSAVDMMYHLLHRILGIIAC | 1.48 ± 0.55
YGLEYVYVVV | 0.277 ± 1.4
RFFPDNNCMQCDATAEDTGL | -0.246 ± 1.4
VKVGVCGSVGWLHTGVQSNG | 0.804 ± 0.3
GGFSNFMMVCNVATFSSNQL | 3.47 ± 0.19
RNSDFHFIFWY | 0.865 ± 0.37
VIKSRP | 0.639 ± 0.42
YLLLLDGGPSPVLAIRHVNG | -0.989 ± 0.76
KWILVRSLESIHKPTL | 0.174 ± 0.89
RLRPTTAASSLCSVLVPR | -0.097 ± 1.1
FINHKHKQDQVI | 1.48 ± 0.49
IWILYLAFIVHKNVLLPRVL | 0.123 ± 0.49
HASWVRAITWVHQAGTYVML | -0.693 ± 1.3
GVMACDMCCPNKRVSEPRAS | -0.278 ± 0.41
DEWSNKHCSQNTALCSLWAT | 1.43 ± 0.2
LPKKDNHSSTNA | -1.77 ± 2.4
LHGPWVVYFELSSIFTLTYQ | -0.478 ± 0.29
TLNHRSLCFSSVDILWVWII | -0.533 ± 0.9
FSRFWISSKHT | -1.33 ± 1.3
CRQGMTLAVREPGASTSVYN | 0.47 ± 0.71
SYVRLFERFWVNFRSHMGNC | 0.014 ± 0.52
TVFIKLKVFAMN | 1.53 ± 0.18
IGVKVTY | -0.796 ± 0.53
MGFQFNTFCF | 8.144 ± 0.062

Substance | amyloid nucleation score
NCWFCNRQNSLSGKELYVIR | inactive
NGYQCYGILCAFVTWTVYFW | 1.26 ± 0.79
LDLINRMGNVGMLIMDCYKI | 0.159 ± 0.43
VCITNNELVGVFDDEVFIAF | inactive
TFMHARDYDMNS | -0.666 ± 0.86
SSCSPHLLFGLASVGV | 0.39 ± 0.53
RINLVDLMWMRHWRMGNI | 1.41 ± 0.29
RERSIWFSFDGCRRRRRYGG | 1.41 ± 0.78
KLLSTDNLYVQSYLFEDCNR | -0.544 ± 0.59
LVSMSYSVREDDFISLLWGV | inactive
VIESG | 1.34 ± 0.93
FSLCDSKSKWLLYCSGSFNL | 2.69 ± 0.14
GSNLVQKRRCYSWMSLYLSS | 0.333 ± 0.26
AQDLPLVTRNCKCMRRHLWV | -0.171 ± 0.42
LFGGFMFLGKWDQLHGHNEC | 0.799 ± 0.49
DIRLTMRVSSLSM | 0.566 ± 0.31
HFLTDMNFKRARDSDLSSVW | 0.489 ± 0.29
LVPSTFHTF | 0.149 ± 0.77
SRTFVGGLGLVYEIFIVMAV | -0.301 ± 0.59
LSEWNPSLVCMERTLHCS | 0.493 ± 0.25
SSFIPF | 0.1 ± 0.32
NSSCIIPMLWWGHNHHWC | 3.43 ± 0.12
RYATSMYPL | 0.069 ± 0.56
GGCVGLCFRYSFPTCDSC | 1.65 ± 0.42
TTCLTQNLDQGSLLYKVLPR | 1.43 ± 0.18

Substance | amyloid nucleation score
FKFMSLGMSWAT | 1.61 ± 0.33
EMSRGHLHTSFRVYIQMLGG | 4.54 ± 0.073
ENRYMELTFQCSARRVG | 2.81 ± 0.11
GTTLDYWRVMEMSGDFTSFC | -0.073 ± 0.68
RSGTPQSERDGGGFTEVKKT | -0.205 ± 0.42
RLSTFSFMVSICTHCLLYTN | 1.06 ± 0.59
NIRKEGFFRFSPSTADTTCR | 0.618 ± 0.71
TLYHSI | -0.385 ± 0.56
INRFEG | -0.385 ± 0.68
CGSRVDGSCTAGTSIWVVDV | 0.528 ± 0.66
VSNSWAWPFRRNCGSECWFT | 0.228 ± 0.33
VNYISHTQMKTR | 0.913 ± 0.41
PSHFHHQ | 0.305 ± 0.32
RREVRCSQR | -0.559 ± 0.61
GSSRDNGQFYSFELS | 0.398 ± 0.64
SVRYWAYRFVHF | inactive
WLWSQLVESCGRVRCSGGSG | 1.37 ± 0.5
FQCVILVPG | 1.03 ± 0.74
FNWLTVSAFHQHRTLTMNMY | 0.216 ± 0.3
FMRDFSGCSNDRFDGDLALC | 0.024 ± 0.62
LPGDDTSCEDLSGGVPLWNG | inactive
CTRHMHTSRKFQALLSWCVT | -0.316 ± 0.47
SITVVSNEFNVVNVILCGCY | 7.009 ± 0.046
DHFKG | -0.044 ± 0.84
FPCALSYAGMVSTVRALRKF | 0.228 ± 0.8

Substance | amyloid nucleation score
CVYGIGVYR | -0.84 ± 0.95
NQYSFRGLS | inactive
YIGRGNMHELFHRLLRGCVL | inactive
PLAMNSFVIVIDGRLHVLGD | 4.72 ± 0.12
AGQVYRFAVSVRSSKLIVAR | 0.966 ± 0.45
YSVMSSRSGIVGSWVHRGVQ | 0.38 ± 0.32
ISNGIYISKEGFHEWSNRH | 4.18 ± 0.064
WTMLDMFLFS | -0.872 ± 0.42
CGLKNFGVLSFRSIDCQRKG | -1.48 ± 1.1
LPGFYDRKICKSLSMIYRLS | -0.405 ± 1.7
YGSNWLEGVGLYRGVARQSW | -0.781 ± 0.43
LWVFGCCIVRMIR | 0.047 ± 0.74
VHNHISP | -0.836 ± 0.37
ECMGGVAIARNFATI | -1.11 ± 2.7
RPKCWWVIGCIKRKSMSIGR | 2.17 ± 0.081
TSDNFCQCHCSFFQSWFGG | -0.27 ± 0.63
TESVRKWFKLRLWESWYNSN | 0.145 ± 0.51
SAVSMVR | -0.594 ± 0.55
VEFFFDF | -0.417 ± 0.77
FRVYFIVRVPYI | 1.36 ± 0.52
MLGKNSSCESNMEYVFRSCL | 0.244 ± 0.23
VSVMFYPFVFHWYGCLLTSA | 2.96 ± 0.12
VSFYGGFGKK | -0.116 ± 0.64
TLCCLT | inactive
RFFNHPMSFANMKLRSECTR | -0.832 ± 0.94

Substance | amyloid nucleation score
VDMNAEKTSSDERLWERRRT | 0.606 ± 0.65
YWFFSIMSSYSVNTQM | 1.64 ± 0.8
VRDSVTLFPK | -0.277 ± 0.77
WLVLHTNLMLGCSTRSMLCA | 0.174 ± 0.5
FFGNLVRWSNGYGDHCYSLN | 2.51 ± 0.22
HAIFCLSKLTFLGPILGSFT | 7.112 ± 0.048
FNRENGRNFALVVCLLDRFG | 1.41 ± 0.17
VHDVWEGFICGLPKYRGRLM | 0.026 ± 0.75
AYIVNIELGNRTS | 7.04 ± 0.056
ALIFLGYMLRRRYWIYRLLS | 0.07 ± 0.58
LYFMSISTMAIRSCGVGLHQ | 0.235 ± 0.37
ALNGSNRIIACTIIWCVVW | 2.51 ± 0.18
PIFLGLFDDRYMG | 0.116 ± 0.45
GGEDLRKFLDMFVIVSKNTT | 0.67 ± 0.46
DMEKVV | 0.408 ± 0.6
WYSVKESLGSPSLPSQFLST | inactive
DYGKSCRIALYGYYDRWCTG | 0.797 ± 0.48
SVLCTLALSTCLGCLIVS | inactive
LFGVFGFISVVSFSP | -0.455 ± 1.7
TMKVGYQGICYTETSGMSFV | inactive
LIHYNNNVYTRWAWSSQQGE | 2.75 ± 0.2
LCSMWEGRGADEMLAICQGA | 0.152 ± 0.59
AAKRSETAP | -0.308 ± 0.43
NFPKYGFQGVFRTPMWYGFF | -1.63 ± 1.1
YSRLSCWYYAPGVSLGVIKW | 0.483 ± 0.48

Substance | amyloid nucleation score
EWKNGSHMWLQRLGESWNRL | -0.413 ± 0.35
EGMNLV | 0.196 ± 0.63
SFLLKKKVPWPFFCTCMLVG | -0.575 ± 1.5
SFAQLMGGAVSHYVFLPWNA | -0.525 ± 0.85
SWSEVGWTHCMSWASHI | -1.14 ± 2.4
RPRSDSRGTRKDNGFDDVKL | 0.438 ± 0.39
ASRYGDF | 0.555 ± 0.42
CIFFVNTGHGYLWQDYAHSN | 3.58 ± 0.15
CLFDATVLNVLYQEIAEPRR | inactive
GGWSGRSLRDCVCMVHIKVG | 0.071 ± 0.75
DILVYRTLSPCVLSCSYFSG | -1.25 ± 0.77
GWYSFLPSRNYFK | 4.92 ± 0.072
NPFCFMMRTGRSGSGWVKRR | 0.088 ± 0.54
FLLMVWDIYECVGNTLKRCA | 0.027 ± 0.42
WRGISVQAVRRLCAKNKSSR | 1.25 ± 0.85
LNGRYLDVLHQVIHQNVREP | 3.01 ± 0.22
SNVICRGR | 1.41 ± 0.31
GKQHSLS | -1.44 ± 1.9
SLQAIGNWYHD | 0.038 ± 0.6
RCCKQTSRVDMC | 0.156 ± 1.6
CIVYFSCLMYHWILDC | 0.422 ± 0.65
TIIPLHIRAIYA | 0.956 ± 0.28
EVITNTNGIVWSFDELYSVM | inactive
VPSFITYLVVDLWDALQGYH | 0.409 ± 0.42
NCSGVFKGKSLTSCGT | -0.038 ± 0.21

Substance | amyloid nucleation score
NWYVVYSWSEQIYREDSMGT | -0.52 ± 0.71
QMVYRYDER | -1.43 ± 1.6
STRGHNMTEINVWMVHNILT | -0.116 ± 1.4
MFWQHQLFVESRQNSSFTSF | -0.23 ± 0.63
TFLMCRNACYK | 4.35 ± 0.15
IKAELAKCLNTACVKFFCDV | 0.715 ± 0.37
EVSLVVYTYVF | 0.697 ± 0.69
RHVDRLVLWHEDSVAPGETN | 0.394 ± 0.49
FWCMALK | -1.05 ± 2.4
YYFRHMLKDNHLVIV | inactive
SAELKDLRGKQLLAGGP | 0.53 ± 1.1
SWATWLDMNG | 0.964 ± 0.76
TCISTCYD | -0.183 ± 0.9
SRMWR | -0.068 ± 0.45
RSALVLVYGLTACLNGLGMC | 3.04 ± 0.097
LRKGTVRLSSFEKWYMVRTG | -0.701 ± 0.7
KVFVSALCC | 4.19 ± 0.067
LAFTSLSNLYEDMCYQDWMV | 1.82 ± 0.36
QIIKENFRRSY | 2.45 ± 0.55
RVPATLNLLGVRQGRD | 0.26 ± 0.72
TVISV | -1.47 ± 0.5
WSRAVVFMSIHFRNGLMQ | -0.444 ± 0.64
MCILTRRFGLMGWNTHYKS | -0.525 ± 0.94
